# Test results taken from patent US6903183B1, “Compositions and methods for regulation of steroidogenesis” (Texas Tech University Health Services Center, priority 1996, dated 2005).
# T1: StAR (Mus musculus, UniProt P51557)
# T1 construct: made in house; host or cells: three sources: dbcAMP-stimulated MA-10 cells (endogenous); COS 1 cells transfected with StAR cDNA; E. coli with pKK233-2/StAR
# T1 sequence (P51557 63-284): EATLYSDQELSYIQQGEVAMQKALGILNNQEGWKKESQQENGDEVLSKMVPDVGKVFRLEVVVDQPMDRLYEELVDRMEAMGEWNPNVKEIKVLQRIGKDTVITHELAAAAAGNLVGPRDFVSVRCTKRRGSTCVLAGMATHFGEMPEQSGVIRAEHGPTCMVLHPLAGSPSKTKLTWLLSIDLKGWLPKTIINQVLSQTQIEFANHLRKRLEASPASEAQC
# B1: StAR: LH-inducible mitochondrial 37 kDa precursor / 30 kDa mature protein, SEQ ID NO:2 (mouse) or 18 (human) (protein)
# chain: MGQVRRRSSLLGSQLEATLYSDQELSYIQQGEVAMQKALGILNNQEGWKKESQQENGDEVLSKMVPDVGKVFRLEVVVDQPMDRLYEELVDRMEAMGEWNPNVKEIKVLQRIGKDTVITHELAAAAAGNLVGPRDFVSVRCTKRRGSTCVLAGMATHFGEMPEQSGVIRAEHGPTCMVLHPLAGSPSKTKLTWLLSIDLKGWLPKTIINQVLSQTQIEFANHLRKRLEASPASEAQC
# Key:
# StAR [1] = biological target: T1, StAR; assay: Fluorescent sterol binding assay
# StAR [2] = biological target: T1, StAR; assay: Cholesterol binding to StAR (filtration radioassays, native PAGE)
# Excerpt: For these studies StAR proteins were obtained from three sources; (1) MA-10 cells stimulated with dbAMP; (2) monkey kidney cells (COS 1) transfected with StAR cDNA; and (3) expression of a recombinant pKK233-2/StAR plasmid in E. coli. Filtration radioassays and Steady-State (native) polyacrylamide gel electrophoresis were used to detect cholesterol binding to StAR. […] Thus, this study has provided evidence that cholesterol can bind to the StAR protein with high affinity.
# MA-10 cells = assay: Progesterone production in MA-10 cells transfected with the 30 kDa cDNA (radioimmunoassay); assay type: cell-based, mouse
# Excerpt: Expression of the 30-kD Protein in MA-10 Cells and COS I Cells. The full length SalI-NotI 1456 base pair 30-kDa cDNA was subcloned into the eukaryotic expression vector, pCMV (Anderson, et al., 1989). MA-10 cells were transfected with DNA by a lipsome-mediated uptake using the LipofectAMINE reagent (Life Technologies, Inc. Gathersburg, Md.) (Hawley-Nelson, et al., 1993). Plasmid DNA used in transfection experiments were purified by CsCl density gradient followed by polyethylene glycol precipitation. The DNA was mixed with {fraction (1/10 )} the final volume of Waymouth's media minus serum and minus antibiotics (WAY^−) and added to an equal volume of WAY^− media containing the LipofectAMINE reagent. The DNA/lipid solution was gently mixed and incubated for 30 min at room temperature, then WAY^− media was added to achieve the final concentration of the DNA and LipofectAMINE reagent of 5 μg/ml and 20 μg/ml respectively. The cells were washed once with WAY^− media, incubated with transfection mix for 6 h, washed once with PBS, then incubated with Waymouth's plus 15% horse serum. The same procedure was used for transfection of COS 1 cells except Dulbecco's modified Eagle's media minus serum and antibiotics was used for the transfection media. For isolation of mitochondria for immunoblot analysis, cells were grown on 100-mm dishes. For progesterone production assays, MA-10 cells were plated into 96 well plates at 75,000 cells/well the day before the experiment. Typically, 8 wells each were transfected with either pCMV or pCMV+30-kDa cDNA for one experiment set.
# Radioimmunoassay. 48 hours post-transfection, the growth medium was replaced with Waymouth's minus horse serum. After 6 h at 37° C. 5% CO2, progesterone was measured directly in the media by radioimmunoassay as previously described (Resko, et al., 1974). The progesterone antibody was obtained from Holly Hill Biologicals (Hillsboro, Oreg.).
# MA-10 cells were transfected with the 30 kDa cDNA and progesterone production was measured as follows. The full-length cDNA was subcloned into the pCMW eukaryotic expression vector and transfected into MA-10 cells using LipofectAMINE (Life Technologies, Inc.). Cells (75,000 per well) were plated in a 96 well plate the day before transfection. The cells were incubated with the DNA/lipid transfection mixture for 6 hours, washed one time with PBS, and the incubated in Waymouths+15% horse serum. […] After 6 h, the medium was removed and progesterone was measured by radioimmunoassay. The cells were lysed directly in the wells with 0.1% SDS and protein was determined by the method of Bradford (1976). […] The transfected cells were not treated with hormone and progesterone was measured directly in the media after a 6 h incubation.
# COS 1 cells [3] = assay: Steroid production in COS 1 cells expressing StAR; assay type: cell-based, monkey; settings: transient transfection of COS 1 cells, absence of hormone stimulation
# Excerpt: Testicular tissue of two patients and genome DNA of a third patient with LCAH have mutations in the gene for StAR (Lin et al., Science, 267:1828-1831, 1995) (incorporated herein by reference). […] These truncations were confirmed by Western analysis following expression of the mutated cDNAs in COS cells. Virtually none of the precursor form of StAR expressed from the cDNA of these patients was converted to the mature mitochondrial form.
# Also, increases in StAR mRNA and protein closely paralleled steroid production indicating a temporal relationship in these parameters.
# [4] = test system: mitochondria isolated from MA-10 mouse Leydig tumor cells; assay: In vitro reconstituted system: pregnenolone synthesis by isolated mitochondria; assay type: biochemical; settings: protein added to isolated mitochondria
# Excerpt: Rat heart mitochondria were used for the import assay with bovine StAR, indicating import of StAR is not dependent upon factors specific to mitochondria isolated from steroidogenic tissues. The ability of StAR to increase steroid production has also been confirmed in an in vitro reconstituted system.
# COS 1 cells [5] = settings: expressed in COS1 cells (Lin et al., 1995); cited from earlier work
molecule,measurement,setting,value
C[C@H](CNc1ccc([N+](=O)[O-])c2nonc12)[C@H]1CC[C@H]2[C@@H]3CC=C4C[C@@H](O)CC[C@]4(C)[C@H]3CC[C@]12C [NBD-cholesterol],affinity of binding to StAR,StAR [1],nanomolar range
CC(C)CCC[C@@H](C)[C@H]1CC[C@H]2[C@@H]3CC=C4C[C@@H](O)CC[C@]4(C)[C@H]3CC[C@]12C [cholesterol],specific binding to StAR,StAR [2],20-40 % of the total binding
B1,average rate of progesterone produced,MA-10 cells; MA-10 cells expressing the 30 kDa protein,166 pg progesterone produced per mg protein per hour
same,increase in progesterone production above cells transfected with vector alone,"MA-10 cells; MA-10 cells, absence of hormone stimulation",1.5-3.5
same,increase in steroidogenesis,MA-10 cells; expression of 30 kDa protein in MA-10 cells versus pCMV vector alone,1.5 to 3.7 fold
same,constitutive steroid production versus basal parental MA-10 cells,MA-10 cells; stable transfected MA-10 cell lines constitutively synthesizing the 30 kDa protein,about 9 x
same,steroid production,COS 1 cells [3],several fold increase
same,pregnenolone synthesis,[4],time- and dose-dependent increase
same,increase in steroid production,COS 1 cells [5],8 fold
